Assays:
[1] = molecular target: CT7-Tlpa coil fusion protein (Tlpa coiled-coil domain - GGSGG linker - C-terminal T7 RNA polymerase fragment) (T7 phage); test: cell-based or functional assay
[2] = molecular target: CT7 protein fragment (C-terminal T7 RNA polymerase fragment without Tlpa coiled-coil) (T7 phage, UniProt P00573 564-883); test: cell-based or functional assay

NT7-Tlpa coil fusion protein (N-terminal T7 RNA polymerase fragment - GGSGG linker - Tlpa coiled-coil domain)
fold-difference of pT7-GFP reporter between 30° C. and 42° C., Thermal-T7RNAP(v3) [1]: 24 fold | half-activation temperature Km of pT7-GFP reporter, Thermal-T7RNAP(v1) [1]: 37.5 ° C. | half-activation temperature Km of pT7-GFP reporter, Thermal-T7RNAP(v2) [1]: 38.4 ° C. | half-activation temperature Km of pT7-GFP reporter, Thermal-T7RNAP(v3) [1]: 36.3 ° C. | maximum repression capacity Kinh of pT7-GFP reporter, Thermal-T7RNAP(v1) [1]: 0.957 | maximum repression capacity Kinh of pT7-GFP reporter, Thermal-T7RNAP(v2) [1]: 0.427 | maximum repression capacity Kinh of pT7-GFP reporter, Thermal-T7RNAP(v3) [1]: 0.971

B1: NT7 protein fragment (N-terminal T7 RNA polymerase fragment without Tlpa coiled-coil) (other)
chain: MNTINIAKNDFSDIELAAIPFNTLADHYGERLAREQLALEHESYEMGEARFRKMFERQLKAGEVADNAAAKPLITTLLPKMIARINDWFEEVKAKRGKRPTAFQFLQEIKPEAVAYITIKTTLACLTSADNTTVQAVASAIGRAIEDEARFGRIRDLEAKHFKKNVEEQLNKRVGHVYKKAFMQVVEADMLSKGLLGGEAWSSWHKEDSIHVGVRCIEMLIESTGMVSLHRQNAGVVGQDSETIELAPEYAEAIATRAGALAGISPMFQPCVVPPKPWTGITGGGYWANGRRPLALVRTHSKKALMRYEDVYMPEVYKAINIAQNTAWKINKKVLAVANVITKWKHCPVEDIPAIEREELPMKPEDIDMNPEALTAWKRAAAAVYRKDKARKSRRISLEFMLEQANKFANHKAIWFPYNMDWRGRVYAVSMFNPQGNDMTKGLLTLAKGKPIGKEGYYWLKIHGANCAGVDKVPFPERIKFIEENHENIMACAKSPLENTWWAEQDSPFCFLAFCFEYAGVQHHGLSYNCSLPLAFDGSCSGIQHFSAMLRDEVGGRAVNLLP
fold-difference of pT7-GFP reporter between 30° C. and 42° C., Split-T7 system (no Tlpa coil) [2]: 4 fold

Reference: patent US20240035059A1 (NATIONAL UNIVERSITY OF SINGAPORE, published 2024)
